Results on four molecules are retold here after patent US20190202912A1 (NEXTCURE, published 2019).

One test concerns the target T1, hS15 (Homo sapiens, UniProt Q6ZMC9).
T1 construct: full length, cell surface; also called human Siglec-15; huS15
T1 sequence (membrane protein on cells, looked up): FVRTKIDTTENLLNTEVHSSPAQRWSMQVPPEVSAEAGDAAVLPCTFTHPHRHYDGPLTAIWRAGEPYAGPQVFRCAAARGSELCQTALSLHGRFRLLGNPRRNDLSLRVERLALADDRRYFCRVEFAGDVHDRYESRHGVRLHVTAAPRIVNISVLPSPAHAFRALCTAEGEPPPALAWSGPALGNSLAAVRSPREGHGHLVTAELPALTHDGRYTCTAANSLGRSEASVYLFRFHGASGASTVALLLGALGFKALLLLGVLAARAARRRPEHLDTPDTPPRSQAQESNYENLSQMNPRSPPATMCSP
The experiment in a line: flow cytometry, live 293T.hS15 cells, 1 µg mAb/1E05 cells/100 µL, PE secondary. The method, then:
Cells were sorted to establish human S15 and mouse S15 stable cell lines. […] 1E05 cells in 100 μL FACS buffer were aliquoted to separate tubes and 1 μg of purified mAb was added. Cells were incubated at 4 degrees C. for 30 minutes, then washed twice with excess FACS buffer. Cells were resuspended in 100 μL FACS buffer and 0.005 μg of anti-mouse IgG-PE secondary antibody was added to samples, incubated for 30 minutes and washed twice with excess FACS buffer. Cells were fixed in fixation buffer and subsequently analyzed by flow cytometry.

The target of the next test is T2, mS15 (Mus musculus).
T2 construct: full length, cell surface; also called mouse Siglec-15
Nature of the test: flow cytometry titration, 293T cells transfected with mouse Siglec-15 (293T.mS15). On the procedure: […] Cells were incubated at 4 degrees C. for 30 minutes, then washed twice with excess FACS buffer. Cells were resuspended in 100 ul FACS buffer and 0.005 ug of anti-mouse IgG-PE secondary antibody was added to samples, incubated for 30 minutes and washed twice with excess FACS buffer. Cells were fixed in fixation buffer (2% formaldehyde in PBS) and subsequently analyzed by flow cytometry.

Test [1] addresses T3, S15-extra cellular domain (ECD) monomer (human, UniProt Q6ZMC9 20-263).
T3 construct: also called S15 monomer protein
T3 sequence: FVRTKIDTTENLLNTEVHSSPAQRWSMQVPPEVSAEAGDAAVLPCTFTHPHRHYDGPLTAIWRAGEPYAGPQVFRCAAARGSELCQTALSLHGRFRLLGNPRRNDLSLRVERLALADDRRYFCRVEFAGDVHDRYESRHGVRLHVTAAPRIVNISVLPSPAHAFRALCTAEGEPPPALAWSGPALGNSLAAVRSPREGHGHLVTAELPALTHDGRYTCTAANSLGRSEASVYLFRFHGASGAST
Nature of the test: BLI (Octet RED96), mAb on anti-human Fc sensors, S15-ECD monomer in solution, global fit. On the procedure:
Optimized KD experiments were performed on a ForteBio Octet RED96 instrument using anti-human Fc capture (AHC, 18-5060; ForteBio) sensors. Assay buffer was PBS containing 0.05% Tween-20 and regeneration buffer was 10 mM glycine (pH 1.5). First the antibodies were loaded at 1 μg/mL for 600 seconds. This was followed by a 60 second baseline step, a 300 second association step in S15-extra cellular domain (ECD) monomer, and finally a 1200 second dissociation step. The monomer concentrations ranged from 100 nM to 1.56 nM in a two-fold dilution series and a blank well was included. Data was processed using ForteBio's Data Analysis Software 7.0; a global fit was used, along with reference well subtraction. Reported values are the average of at least three independent octet runs.
In general terms: In BLI a coated tip is dipped into the sample, and binding shifts an interference pattern.

B1: NC28 (antibody, V domains shown)
VH: QVQLQQSGAELARPGASVKLSCKASGYTFISYGITWVKQRTGQGLEWIGEIHPRSGNTYYNENFKDRASLTADKSSSTAYMEVRSLTSEDSAVYFCARGGPGDYWGQGTTLTVSS
VL: not shown
notes: mouse anti-human Siglec-15 mAb; also called 28A
As for B1, the binding result with hS15 was “binds”.

B2: NC63 (antibody, V domains shown)
VH: QVQLQQSGAELARPGASVKLSCKASGYTFTSYGISWVKQRTGQGLEWIGQIYPRSDNTYYNERFKGKATLTADKSSSTAYMALRSLTSEDSAVYFCAREGGPDYWGQGTTLTVSS
VL: not shown
notes: mouse anti-human Siglec-15 mAb; also called 63A
Take B2: the binding result with hS15 was “binds”.

B3: 1H3 (antibody, V domains shown)
VH: QVQLKESGPGLVAPSQSLSITCTVSGFSLSNYGVHWVRQPPGKGLEWLVLIWSDGSTTYNSALKSRLSISKDNSKSQVFLKMNSLQTGDTAMYYCARHPYDDYSGYYYTMDYWGQGTSVTVSS
VL: DIQMTQASSSLSVSLGGRVTITCKASDHINNWLAWYQQKPGNAPRLLISGATSLETGVPSRFSGSGSGKDYTLSITSLQTEDVATYYCQQYWSSPLTFGAGTKLELK
notes: Mouse anti-human Siglec-15 mAb
Consider B3, for which, in the test with mS15, the concentration giving a half-maximal response (EC50 (read off the curve)) (in general, the concentration giving half of the maximal effect) is approximately 0.05 µg/mL. Also, in test [1], the Kd (as a rule, the concentration at which binding is half-saturated) stood at 0.11 nM; the off-rate (koff) – broadly, a measure of how fast the partners let go of each other – is 3.9e-05 s⁻¹; the on-rate (kon) (usually the rate constant with which the complex forms) was found to be 359000 M⁻¹ s⁻¹.

B4: 5G12 (antibody, V domains shown)
VH: QVQLQQPGAELVKPGASVKMSCKASGYTFTSYWITWVIQRPGQGLEWIGDIYCGSDTMHYNEKFKNKATLTVDTSSSTAYMQLSSLTSEDSAVYYCARWWDYGSSYDYFDYWGQGTTLTVSS
VL: DIKMTQSPSSMYASLGERVTITCKASQDINSYLSWFQQKPGKSPKTLIYRANRLVDGVPSRFSGSGSGQDYSLTISSLEYEDMGIYYCLQYDEFPYTFGGGTKLEIKR
notes: as for B3
B4: the concentration giving a half-maximal response (EC50 (read off the curve)) with mS15 was approximately 0.05 µg/mL. In test [1], this molecule registered an equilibrium dissociation constant (Kd) of 0.3 nM, an off-rate (koff) of 0.000123 s⁻¹ and a kon of 421000 M⁻¹ s⁻¹.
